Source: article PMC5710141 (Genes & Development, 2017)

Columns and labels:
[1] = molecular target: the molecule itself; experiment: AUC
[2] = molecular target: Mif2c (Mif2 core) dimer (Saccharomyces cerevisiae (budding yeast), UniProt P35201 256-530); experiment: analytical ultracentrifugation
[3] = molecular target: Mif2 DHBD (Saccharomyces cerevisiae (budding yeast), UniProt P35201 256-365); experiment: analytical ultracentrifugation

B1: Mif2 core (Mif2c) dimer, Mif2 residues 256-530 (domain or fragment, budding yeast, UniProt P35201 256-530, looked up)
chain: NTNDNEDDYIRRQASDVVRTDSIIDRNGLRKSTRVKVAPLQYWRNEKIVYKRKSNKPVLDIDKIVTYDESEDEEEILAAQRRKKQKKKPTPTRPYNYVPTGRPRGRPKKDPNAKENLIPEDPNEDIIERIESGGIENGEWLKHGILEANVKISDTKEETKDEIIAFAPNLSQTEQVKDTKDENFALEIMFDKHKEYFASGILKLPAISGQKKLSNSFRTYITFHVIQGIVEVTVCKNKFLSVKGSTFQIPAFNEYAIANRGNDEAKMFFVQVTVS
With B1 as the binder, how does the “stoichiometry N” value [1] read?
The value was 2.

B2: 40-bp AT-rich dsDNA (dsDNA)
DNA 1: AAAGTAAAAAATAAAAAGTAGTTTATTTTTAAAAAATAAA
DNA 2: TTTATTTTTTAAAAATAAACTACTTTTTATTTTTTACTTT
Does B2 bind [2]?
Result: binds

B3: 20-bp AT-rich dsDNA (dsDNA)
DNA 1: AAAGTAAAAAATAAAAAGTA
DNA 2: TACTTTTTATTTTTTACTTT
Does B3 bind [3]?
Result: binds
